Assay results: the PETadex activity labels (doi:10.1038/s41467-025-61599-z)

How the values were obtained:
PET [1] = assay: Proxy for plastic degradation [Released monomer concentration (HPLC/LC-MS) (MHET+TPA)]; settings: pH 9, part of the chain shown
pNPB = assay: Proxy for plastic degradation [Absorbance @ 430nm] (min⁻¹); settings: pH 8; part of the chain shown
PET [2] = assay: Proxy for plastic degradation [kcat/Km (catalytic efficiency)] (mM⁻¹s⁻¹); settings: pH 8; part of the chain shown
[3] = Proxy for plastic degradation [Released monomer concentration (HPLC/LC-MS) (TPA+MHET)]; settings: part of the chain shown
PET [4] = assay: as above; settings: part of the chain shown

Q: Which “Proxy for plastic degradation” value (PET [1]; 30 °C) does the source give for “NNPGGGGGTAPDTGTGFPGVSNFSASGSFATTSGSAGASCTVFRPST” here?
A: 8.31 µM

Q: What about the “Proxy for plastic degradation” value (PET [1]; 40 °C) of the same sequence?
A: 9.03 µM

Q: What about the “Proxy for plastic degradation” value (PET [1]; 50 °C) of the same sequence?
A: 9.57 µM

Q: What about the “Proxy for plastic degradation” value (PET [1]; 55 °C) of the same sequence?
A: 9.09 µM

Q: What about the “Proxy for plastic degradation” value (PET [1]; 60 °C) of the same sequence?
A: 9.47 µM

Q: What about the “Proxy for plastic degradation” value (pNPB) of the same sequence?
A: 25400

Q: With “QDNSDGRYRPEGRTFARGAANLFDDRLFEARTYVTGTDVA” as the sequence, how does the “Proxy for plastic degradation” value (PET [1]; 30 °C) read?
A: 15.4 µM

Q: What about the “Proxy for plastic degradation” value (PET [1]; 40 °C) of the same sequence?
A: 15.5 µM

Q: And the “Proxy for plastic degradation” value (PET [1]; 50 °C)?
A: 15.5 µM

Q: What about the “Proxy for plastic degradation” value (PET [1]; 55 °C) of the same sequence?
A: 16.6 µM

Q: And the “Proxy for plastic degradation” value (PET [1]; 60 °C)?
A: 16.1 µM

Q: And the “Proxy for plastic degradation” value (pNPB)?
A: 49500

Q: With “GDPPAVRTVPAAAAAPVDWSKTGPHQVKVDKADAHTIYRPSDLG” as the sequence, how does the “Proxy for plastic degradation” value (PET [1]; 30 °C) read?
A: 12.7 µM

Q: And the “Proxy for plastic degradation” value (PET [1]; 40 °C)?
A: 12.6 µM

Q: What about the “Proxy for plastic degradation” value (PET [1]; 50 °C) of the same sequence?
A: 15.7 µM

Q: And the “Proxy for plastic degradation” value (PET [1]; 55 °C)?
A: 16 µM

Q: What about the “Proxy for plastic degradation” value (PET [1]; 60 °C) of the same sequence?
A: 16.4 µM

Q: What about the “Proxy for plastic degradation” value (pNPB) of the same sequence?
A: 44800

Q: What does the source list for “ESETTAAAVSSRYYEETGPHAVTVEQGGPDHTLYYPSDLGAGGT”?
A: Proxy for plastic degradation (PET [1]; 30 °C): 13.9 µM; Proxy for plastic degradation (PET [1]; 40 °C): 14.7 µM; Proxy for plastic degradation (PET [1]; 50 °C): 10.6 µM; Proxy for plastic degradation (PET [1]; 55 °C): 15.5 µM; Proxy for plastic degradation (PET [1]; 60 °C): 15.3 µM; Proxy for plastic degradation (pNPB): 32300

Q: Which “Proxy for plastic degradation” value (PET [1]; 30 °C) does the source give for “DPWDAPGPYATAVQIGAVNTLYYPRDIASSPRRHPVIVWGNGT” here?
A: 13 µM

Q: And the “Proxy for plastic degradation” value (PET [1]; 40 °C)?
A: 13.4 µM

Q: And the “Proxy for plastic degradation” value (PET [1]; 50 °C)?
A: 14.2 µM

Q: And the “Proxy for plastic degradation” value (PET [1]; 55 °C)?
A: 13.4 µM

Q: And the “Proxy for plastic degradation” value (PET [1]; 60 °C)?
A: 14.1 µM

Q: And the “Proxy for plastic degradation” value (pNPB)?
A: 21900

Q: Which “Proxy for plastic degradation” value (PET [1]; 30 °C) does the source give for “TPEFKPQPGPLSIKSAAAISFRVEDQAKDLQIRVTYPDGPGPWP” here?
A: 15.7 µM

Q: And the “Proxy for plastic degradation” value (PET [1]; 40 °C)?
A: 12.8 µM

Q: And the “Proxy for plastic degradation” value (PET [1]; 50 °C)?
A: 17.3 µM

Q: What about the “Proxy for plastic degradation” value (PET [1]; 55 °C) of the same sequence?
A: 17.3 µM

Q: What about the “Proxy for plastic degradation” value (PET [1]; 60 °C) of the same sequence?
A: 17.2 µM

Q: What about the “Proxy for plastic degradation” value (pNPB) of the same sequence?
A: 16800

Q: With VTKGPDPSAAEVAKVTGSYAVTETKVDDAASTKFGPATV as the sequence, how does the “Proxy for plastic degradation” value (PET [1]; 30 °C) read?
A: 15 µM

Q: What about the “Proxy for plastic degradation” value (PET [1]; 40 °C) of the same sequence?
A: 12.8 µM

Q: And the “Proxy for plastic degradation” value (PET [1]; 50 °C)?
A: 15.3 µM

Q: What about the “Proxy for plastic degradation” value (PET [1]; 55 °C) of the same sequence?
A: 16.2 µM

Q: What about the “Proxy for plastic degradation” value (PET [1]; 60 °C) of the same sequence?
A: 16.3 µM

Q: What about the “Proxy for plastic degradation” value (pNPB) of the same sequence?
A: 31400

Q: Which “Proxy for plastic degradation” value (PET [1]; 30 °C) does the source give for “FGNNGGGGGGEDNVFAEPGDFDVVTEPGGRDCTIFRPEQLGDDH” here?
A: 14 µM

Q: What about the “Proxy for plastic degradation” value (PET [1]; 40 °C) of the same sequence?
A: 13.8 µM

Q: And the “Proxy for plastic degradation” value (PET [1]; 50 °C)?
A: 15.8 µM

Q: And the “Proxy for plastic degradation” value (PET [1]; 55 °C)?
A: 14.4 µM

Q: What about the “Proxy for plastic degradation” value (PET [1]; 60 °C) of the same sequence?
A: 14.9 µM

Q: What about the “Proxy for plastic degradation” value (pNPB) of the same sequence?
A: 23500

Q: With “AGFEKGPDPTTASVTADRGSYDIAQVDVPKGSGTGFADGTIYY” as the sequence, how does the “Proxy for plastic degradation” value (PET [1]; 30 °C) read?
A: 14.6 µM

Q: What about the “Proxy for plastic degradation” value (PET [1]; 40 °C) of the same sequence?
A: 14.2 µM

Q: What about the “Proxy for plastic degradation” value (PET [1]; 50 °C) of the same sequence?
A: 14.1 µM

Q: What about the “Proxy for plastic degradation” value (PET [1]; 55 °C) of the same sequence?
A: 14.4 µM

Q: What about the “Proxy for plastic degradation” value (PET [1]; 60 °C) of the same sequence?
A: 15 µM

Q: And the “Proxy for plastic degradation” value (pNPB)?
A: 16200

Q: For “DEIGQAPTAANITGDGSFSTSSSAIFGQSGFGGGTAYYPNTAGKYPVVAF”, which “Proxy for plastic degradation” value (PET [2]) is on record?
A: 0.263

Q: And the “Proxy for plastic degradation” value (PET [1]; 30 °C)?
A: 65.5 µM

Q: And the “Proxy for plastic degradation” value (PET [1]; 40 °C)?
A: 759 µM

Q: What about the “Proxy for plastic degradation” value (PET [1]; 50 °C) of the same sequence?
A: 3600 µM

Q: What about the “Proxy for plastic degradation” value (PET [1]; 55 °C) of the same sequence?
A: 596 µM

Q: And the “Proxy for plastic degradation” value (PET [1]; 60 °C)?
A: 167 µM

Q: And the “Proxy for plastic degradation” value ([3]; 30 °C)?
A: 65 µM

Q: And the “Proxy for plastic degradation” value ([3]; 40 °C)?
A: 759 µM

Q: What about the “Proxy for plastic degradation” value ([3]; 60 °C) of the same sequence?
A: 167 µM

Q: And the “Proxy for plastic degradation” value (PET [4]; 30 °C)?
A: 65.5 µM

Q: What about the “Proxy for plastic degradation” value (PET [4]; 40 °C) of the same sequence?
A: 759 µM

Q: What about the “Proxy for plastic degradation” value (PET [4]; 55 °C) of the same sequence?
A: 167 µM

Q: And the “Proxy for plastic degradation” value (PET [4]; 60 °C)?
A: 104 µM

Q: And the “Proxy for plastic degradation” value (PET [4]; pH 9, 50 °C, 24 h)?
A: 742 µM

Q: What about the “Proxy for plastic degradation” value (PET [4]; pH 9, 50 °C, 48 h) of the same sequence?
A: 1640 µM

Q: What about the “Proxy for plastic degradation” value (PET [4]; pH 9, 50 °C, 72 h) of the same sequence?
A: 3600 µM

Q: What about the “Proxy for plastic degradation” value (pNPB) of the same sequence?
A: 34300

Q: What does the source list for “LDSPYQRGPDPTEASVKAIAGPFAVDQVKATGHTGFGSGTIFYP”?
A: Proxy for plastic degradation (PET [1]; 30 °C): 11.2 µM; Proxy for plastic degradation (PET [1]; 40 °C): 22.8 µM; Proxy for plastic degradation (PET [1]; 50 °C): 44.2 µM; Proxy for plastic degradation (PET [1]; 55 °C): 26.1 µM; Proxy for plastic degradation (PET [1]; 60 °C): 19.7 µM; Proxy for plastic degradation (pNPB): 41400

Q: What does the source list for “CFGGGDPDPSPEGQALGVPGDFEICSYEANLENDGYASARMTYPCDLS”?
A: Proxy for plastic degradation (PET [1]; 30 °C): 9.91 µM; Proxy for plastic degradation (PET [1]; 40 °C): 9.79 µM; Proxy for plastic degradation (PET [1]; 50 °C): 11 µM; Proxy for plastic degradation (PET [1]; 55 °C): 10.1 µM; Proxy for plastic degradation (PET [1]; 60 °C): 10.5 µM; Proxy for plastic degradation (pNPB): 24400

Q: With “QTNPYARGPNPTAASLEASAGPFTVRSFTVSRPSGYGAGTVYY” as the sequence, how does the “Proxy for plastic degradation” value (PET [1]; 30 °C) read?
A: 17.3 µM

Q: And the “Proxy for plastic degradation” value (PET [1]; 40 °C)?
A: 64.7 µM

Q: And the “Proxy for plastic degradation” value (PET [1]; 50 °C)?
A: 46.9 µM

Q: And the “Proxy for plastic degradation” value (PET [1]; 55 °C)?
A: 27.4 µM

Q: And the “Proxy for plastic degradation” value (PET [1]; 60 °C)?
A: 17.4 µM

Q: What about the “Proxy for plastic degradation” value (pNPB) of the same sequence?
A: 24900
